Experimental data reported in the RNAGym collection of RNA variant scans (doi:10.7554/elife.90254).

B1: OR4K15 (parent)
chain: GUUAACGGUCAUAGGCCAUGGAAACUAGGAGCACCAUUUCGCUGCCAGUGAAGAAAUGAACAAAGAAAAUCUGGGCCAGGCAGGCAUCAAAAGAAAUAGUCUUGCGCUCAACCAGAAAGUCUGUAAUCAUUUUAAGGGUA

Variants of: B1
Experiment: self-cleavage, relative activity (ratio to wild type); higher = more cleavage; in vitro, sequencing; the parent is a self-cleaving ribozyme

Row | Variant | self-cleavage
1 | G20U U122A | 2.45
2 | U19C A60G | 1.23
3 | U19C A78G | 0.29
4 | G20U U70C | 0.6
5 | G20U U72C | 0.14
6 | U19C G31A | 0.83
7 | U19C G31U | 1.29
8 | U19C | 1.17
9 | U19G | 1.18
10 | U19C A126G | 1.48
11 | U19C U38C | 1.22
12 | U19C A98G | 0.25
13 | U19G A140G | 1.51
14 | U19C A94G | 1.53
15 | U19C U72C | 0.25
16 | G20A A95U | 1.89
17 | U19C A30G | 0.94
18 | G21U G65A | 1.96
19 | U19C G93U | 1.5
20 | G21A A98U | 2.32
21 | G20U U37C | 1.37
22 | U19C A59U | 0.81
23 | U19C A59G | 1.55
24 | G21U A62G | 1.54

Row | Variant | self-cleavage
25 | G21A A90G | 0.38
26 | G21A C85G | 0.64
27 | U19C G119A | 2.13
28 | U19C A54C | 1.2
29 | U19C A54G | 1.21
30 | G21A A60G | 1.14
31 | A22C A63U | 1.85
32 | U19C C76U | 0.14
33 | U19C C121A | 2.88
34 | U19C A129U | 1.39
35 | U19C U102G | 0.78
36 | U19C U102C | 2.32
37 | U19C A135U | 1.5
38 | U19C A135G | 2.08
39 | G21A A69U | 1.48
40 | U19C A22U | 1.23
41 | U19C A22G | 1.12
42 | U19C U124C | 0.87
43 | U19C A67U | 1.67
44 | U19C A67G | 1.04
45 | U19C G75C | 0.17
46 | U19C G75A | 0.23
47 | G21A A68G | 1.55
48 | G21A A125G | 0.73

Row | Variant | self-cleavage
49 | U19A U130C | 0.95
50 | G21U U87C | 1.55
51 | G21C U108C | 0.02
52 | U19C A66U | 0.38
53 | U19C A66G | 1.62
54 | G20A A64G | 1.49
55 | U19C G48A | 1.61
56 | G21A A116G | 0.46
57 | G21A A140G | 1.48
58 | G20A | 1.55
59 | G20C | 1.88
60 | G20U | 1.53
61 | U19G A67G | 1.1
62 | U19C U103C | 0.66
63 | G21A U127C | 1.32
64 | U19C A140U | 1.21
65 | U19G A69U | 0.96
66 | U19C G44A | 0.78
67 | U19G C105G | 0.05
68 | U19C U26C | 1.24
69 | G20A A117G | 0.65
70 | U19C U133C | 2.01
71 | G21A U70C | 1.39
72 | U19C U37C | 1.5

Row | Variant | self-cleavage
73 | G21U U102C | 2.03
74 | U19C U132C | 1.24
75 | G21A A78U | 0.86
76 | U19C U120C | 0.77
77 | U19C A55U | 1.69
78 | U19C A55C | 1.89
79 | U19C A51G | 0.51
80 | G20U A94U | 2.23
81 | U19G A33G | 0.96
82 | U19C A52U | 0.93
83 | G21A A64U | 1.5
84 | G20U A47G | 1.08
85 | U19C U97A | 1.34
86 | U19C U97C | 1.5
87 | G20A A56G | 1.66
88 | U19A U131C | 1.46
89 | U19A U131G | 2.03
90 | G21U A90G | 1.16
91 | U19C A90G | 1.39
92 | U19C A90U | 1.49
93 | U19C G83A | 1.68
94 | U19C G74C | 0.18
95 | G20A A118G | 0.79
96 | U19C A33G | 0.62

Row | Variant | self-cleavage
97 | U19C A96U | 1.51
98 | U19C A96G | 1.8
99 | U19C A96C | 0.69
100 | G20A A69G | 1
101 | G21A A95G | 2.07
102 | U19G A23G | 0.83
103 | G21U U108C | 0.02
104 | G20A A91U | 2.07
105 | U19A U133C | 1.73
106 | G20A A66G | 1.21
107 | A22C | 1.11
108 | G21A A67G | 1.78
109 | U19C U49C | 1.6
110 | U19C U49A | 1.38
111 | G21U A22G | 1.71
112 | G21A A27U | 1.32
113 | G20A U102A | 0.58
114 | U19C A118C | 1.15
115 | U19C A118U | 0.77
116 | U19C A82U | 0.21
117 | U19G G115A | 0.38
118 | U19C G137A | 0.95
119 | U19C C61U | 1.56
120 | G21U A82G | 0.98

Row | Variant | self-cleavage
121 | G21A A30G | 1.51
122 | A22C A89C | 1.57
123 | U19C C85G | 1.02
124 | U19C C113U | 0.08
125 | G21A A114U | 0.05
126 | G21A G138A | 0.84
127 | U19C A86U | 1.8
128 | U19C A92G | 1.53
129 | U19G A110G | 0.2
130 | U19C A27G | 0.89
131 | G21A G106A | 0.02
132 | G20A A27C | 1.93
133 | U19G A24G | 1.16
134 | U19C A117C | 0.71
135 | U19C A117U | 0.58
136 | G21A A51G | 1.66
137 | G21U U122A | 1.42
138 | G20A U49A | 1.67
139 | U19G A64G | 1.49
140 | G20A A24G | 0.1
141 | G21A A135C | 1.25
142 | G20U U39A | 1.57
143 | U19C A62G | 0.83
144 | U19C A62C | 1.65

Row | Variant | self-cleavage
145 | G21A U122G | 2.56
146 | U19C U70A | 1.06
147 | U19C U70C | 0.7
148 | U19C A111G | 0.03
149 | U19C A125U | 2.21
150 | U19C U39A | 2.15
151 | U19C A110G | 0.08
152 | U19C A110C | 0.16
153 | G21A A33U | 2.16
154 | G21A U38A | 1.28
155 | G21U U37A | 1.06
156 | U19C C40U | 1.67
157 | U19C U43A | 2.04
158 | G21A A94G | 1.81
159 | U19C U108A | 0.03
160 | U19C U108C | 0.02
161 | G20A A92U | 0.79
162 | G20A A92G | 2.46
163 | U19C A91U | 1.37
164 | U19C A64G | 1.09
165 | U19C A64U | 1.45
166 | U19C A114U | 0.11
167 | U19C A114G | 0.39
